Assays:
Test in all cases: split reporter (BiFC, NanoBiT); SFLC in living Arabidopsis mesophyll protoplasts: Aux/IAA-FLucN or MYB30-FLucN co-expressed with ARFCTD-FLucC or Aux/IAA-FLucC for 6 hr; 10 µg of each construct, 2×10^4 cells, 96-well plate, D-luciferin; relative activity standardised against ARF5CTD-FLucC + IAA28-FLucN
Conditions in all cases: partners not purified
[1] = molecular target: T1, ARF6 C-terminal domain (CTD)-FLucC (Arabidopsis, UniProt Q9ZTX8 796-935)
T1 construct: In the ARF-ARF tests the same CTD stood both as ARFCTD-FLucC and as ARFCTD-FLucN; one molecule for both; also called ARF6CTD-FLucC; ARFCTD-FLucC; source: Arabidopsis mesophyll protoplasts, transfected, in living cells (SFLC) and in lysate (co-IP); not shown: FLucC (firefly luciferase aa 394-550)
T1 sequence (looked up): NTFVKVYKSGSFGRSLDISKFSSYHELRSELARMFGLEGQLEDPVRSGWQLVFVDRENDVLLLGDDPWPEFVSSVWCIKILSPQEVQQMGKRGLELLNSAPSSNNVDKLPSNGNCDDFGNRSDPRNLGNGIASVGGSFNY

[2] = molecular target: T2, ARF9 C-terminal domain (CTD)-FLucC (Arabidopsis, UniProt Q9XED8 523-638)
T2 construct: Arabidopsis auxin response factor 9, C-terminal dimerization domain (CTD); In the ARF-ARF tests the same CTD stood both as ARFCTD-FLucC and as ARFCTD-FLucN; one molecule for both; also called ARF9CTD-FLucC; ARFCTD-FLucC; source: Arabidopsis mesophyll protoplasts, transfected, in living cells (SFLC) and in lysate (co-IP); not shown: FLucC (firefly luciferase aa 394-550)
T2 sequence (looked up): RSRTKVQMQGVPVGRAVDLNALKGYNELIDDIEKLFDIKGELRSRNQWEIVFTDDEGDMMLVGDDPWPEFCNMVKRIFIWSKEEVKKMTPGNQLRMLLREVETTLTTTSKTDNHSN

IAA6-FLucC = molecular target: T3, IAA6-FLucC (Arabidopsis, UniProt Q38824 1-189)
T3 construct: Arabidopsis Aux/IAA protein IAA6; also called Aux/IAA-FLucC; source: Arabidopsis mesophyll protoplasts, transfected, in living cells; not shown: FLucC (firefly luciferase aa 394-550)
T3 sequence (looked up): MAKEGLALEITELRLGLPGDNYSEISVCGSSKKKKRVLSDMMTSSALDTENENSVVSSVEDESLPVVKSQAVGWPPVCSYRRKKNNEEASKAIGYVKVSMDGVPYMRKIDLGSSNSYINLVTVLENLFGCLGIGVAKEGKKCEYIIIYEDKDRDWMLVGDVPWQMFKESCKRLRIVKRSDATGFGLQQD

IAA13-FLucC = molecular target: T4, IAA13-FLucC (Arabidopsis, UniProt Q38831 1-247)
T4 construct: Arabidopsis Aux/IAA protein IAA13; also called Aux/IAA-FLucC; source: Arabidopsis mesophyll protoplasts, transfected, in living cells; not shown: FLucC (firefly luciferase aa 394-550)
T4 sequence (looked up): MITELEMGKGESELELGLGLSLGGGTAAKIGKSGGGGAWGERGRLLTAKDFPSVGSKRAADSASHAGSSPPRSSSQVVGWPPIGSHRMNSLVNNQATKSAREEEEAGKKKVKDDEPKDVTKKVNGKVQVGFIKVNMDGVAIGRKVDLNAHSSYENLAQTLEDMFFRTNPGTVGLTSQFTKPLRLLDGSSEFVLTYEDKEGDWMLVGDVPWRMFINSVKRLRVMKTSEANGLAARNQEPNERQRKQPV

IAA17-FLucC = molecular target: T5, IAA17-FLucC (Arabidopsis, UniProt P93830 1-229)
T5 construct: Arabidopsis Aux/IAA protein IAA17; also called Aux/IAA-FLucC; source: Arabidopsis mesophyll protoplasts, transfected, in living cells; not shown: FLucC (firefly luciferase aa 394-550)

[3] = molecular target: T6, ARF1 C-terminal domain (CTD)-FLucC (Arabidopsis, UniProt Q8L7G0 542-665)
T6 construct: Arabidopsis auxin response factor 1, C-terminal dimerization domain (CTD); In the ARF-ARF tests the same CTD stood both as ARFCTD-FLucC and as ARFCTD-FLucN (FLucN, firefly luciferase aa 1-398, in place of FLucC); one molecule for both; also called ARF1CTD-FLucC; ARFCTD-FLucC; source: Arabidopsis mesophyll protoplasts, transfected, in living cells (SFLC) and in lysate (co-IP); not shown: FLucC …
T6 sequence (looked up): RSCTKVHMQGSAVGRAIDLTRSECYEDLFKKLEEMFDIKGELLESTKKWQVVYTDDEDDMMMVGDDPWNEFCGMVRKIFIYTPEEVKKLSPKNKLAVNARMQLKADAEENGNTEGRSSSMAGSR

Measured: relative luciferase activity (standardised against ARF5CTD-FLucC + IAA28-FLucN)

T5 sequence (P93830 whole entry, the tested form may be a part): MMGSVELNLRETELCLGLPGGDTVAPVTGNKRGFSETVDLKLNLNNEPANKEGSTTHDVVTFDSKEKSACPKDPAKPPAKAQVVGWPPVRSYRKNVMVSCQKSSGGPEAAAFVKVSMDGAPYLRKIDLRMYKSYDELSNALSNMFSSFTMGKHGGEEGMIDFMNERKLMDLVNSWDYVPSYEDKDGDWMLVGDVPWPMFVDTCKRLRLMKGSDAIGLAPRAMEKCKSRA

B1: MYB30-FLucN (natural protein, UniProt Q9SCU7 1-323, looked up)
chain: MVRPPCCDKGGVKKGPWTPEEDIILVTYIQEHGPGNWRAVPTNTGLLRCSKSCRLRWTNYLRPGIKRGNFTEHEEKMIVHLQALLGNRWAAIASYLPQRTDNDIKNYWNTHLKKKLNKVNQDSHQELDRSSLSSSPSSSSANSNSNISRGQWERRLQTDIHLAKKALSEALSPAVAPIITSTVTTTSSSAESRRSTSSASGFLRTQETSTTYASSTENIAKLLKGWVKNSPKTQNSADQIASTEVKEVIKSDDGKECAGAFQSFSEFDHSYQQAGVSPDHETKPDITGCCSNQSQWSLFEKWLFEDSGGQIGDILLDENTNFF
notes: transcription factor MYB30, the unrelated protein used as negative control; source: Arabidopsis mesophyll protoplasts, transfected, in living cells; not shown: FLucN (firefly luciferase aa 1-398)
< 0.1: all assays above

Source: publication PMC3212559, “Large-Scale Protein-Protein Interaction Analysis in Arabidopsis Mesophyll Protoplasts by Split Firefly Luciferase Complementation” (PLoS ONE, 2011)
